Test results from paper PMC10491789.

Molecular target: GPI-T (wild-type human GPI transamidase complex, purified by the same strategy as GPI-T^sub) (human) (UniProt O43292)
Assay: tandem affinity co-purification; co-expressed in HEK293T-derived knockout cells; solubilised with 1% LMNG/0.1% CHS, exchanged to digitonin; Strep-Tactin beads (Strep tag on PIGU) then Ni-NTA (His tag on (pro)ULBP2); 4 °C; 150 mM NaCl, Tris-HCl pH 8.0

“ULBP2 (His-tagged GPI-anchored product, co-expressed with wild-type GPI-T) (from UniProt Q9BZM5 27-217) (natural protein)” showed a yield during the second affinity chromatography step of 4%.
